In article PMC4880191, “SUMO-Modification of the La Protein Facilitates Binding to mRNA In Vitro and in Cells”:

T1: La (LARP3), native (human, UniProt P05455 1-408)
T1 sequence: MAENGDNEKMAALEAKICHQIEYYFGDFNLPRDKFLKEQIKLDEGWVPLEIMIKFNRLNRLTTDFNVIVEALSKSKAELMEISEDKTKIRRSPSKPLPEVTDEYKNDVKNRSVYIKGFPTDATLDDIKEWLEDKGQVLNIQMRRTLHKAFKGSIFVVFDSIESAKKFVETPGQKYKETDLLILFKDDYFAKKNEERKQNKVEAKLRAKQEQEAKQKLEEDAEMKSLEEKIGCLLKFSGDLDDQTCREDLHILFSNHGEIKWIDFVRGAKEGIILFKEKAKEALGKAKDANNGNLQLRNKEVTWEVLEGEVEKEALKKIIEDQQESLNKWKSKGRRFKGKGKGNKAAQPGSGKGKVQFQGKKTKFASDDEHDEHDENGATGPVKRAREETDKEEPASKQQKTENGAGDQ


Target: T1, La (LARP3), native
Assay: EMSA; most RNA (22 nM) bound at 200-400 nM La; titration 6-700 nM; L37/L22 EMSA: 1x binding buffer (from 2x: 3 mM MgCl2, 300 mM NaCl, 1 mM EDTA, 0.1% Nonidet P-40), i.e. 1.5 mM MgCl2, 150 mM NaCl, 0.5 mM EDTA, 0.05% NP-40; pH not stated; 22 nM RNA, 40 ul, 10 min at room temperature; native 10% PAGE in TBE. CCND1 EMSA as in ref 42
Conditions: protein: recombinant; tags: His6; label: 3'-Cy3; weak secondary structure

Binder	binding result
UUCCGGUCUCUUUGGCCUCGCCGGUAGAAGCAAGAUG (ssRNA) [L37 TOP RNA]	binds
CUCCUCUGCCGCCAUGGCUCCUGUGAAAAAGCUUGUG (ssRNA) [L22 TOP RNA]	binds
